Reference: US20160058880

Tests used:
[1] = system: N-succinyl-beta-alanyl-L-leucyl-L-alanyl-L-leucyl-doxorubicin
[2] = system: Succinyl-βALPF-doxorubicin

TOP (recombinant human thimet oligopeptidase, R&D systems, Ref 3439-ZN)
cleavage by purified TOP 5 nM (grade) (PhAc-KLGP-doxorubicin): + | cleavage by purified TOP 5 nM (grade; * = less than 5% of metabolites detected) (PhAc-ALPF-doxorubicin): -* | cleavage by purified TOP 5 nM (grade) (PhAc-ALAL-doxorubicin): + | cleavage by purified TOP 5 nM (grade) (PhAc-ALGP-doxorubicin): + | cleavage by purified TOP 5 nM (grade) (LGP-Dox): - | cleavage by purified TOP 5 nM (grade) [1]: + | cleavage by purified TOP 5 nM (grade) (PhAc-TSGP-doxorubicin): + | cleavage by purified TOP 5 nM (grade) (PhAc-DLGP-doxorubicin): - | cleavage by purified TOP 5 nM (grade) (PhAc-GPGP-doxorubicin): - | cleavage by purified TOP 5 nM (grade; * = less than 5% of metabolites detected) (PhAc-AIGP-doxorubicin): -* | cleavage by purified TOP 5 nM (grade) [2]: - | cleavage by purified TOP 5 nM (grade; * = less than 5% of metabolites detected) (PhAc-ALAF-doxorubicin): -*
